Source: the supplement of paper PMC10567573

B1: USP39 (parent)
chain: TLSEAYIQIWKRRDNDETNQQGA

Variants of: B1
Test: protein stability index of a GFP-peptide fusion (GPS, HEK-293T) (PSI 1-6); higher = more stable
Conditions: c terminus: native
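Also: lentivirally expressed fusions sorted by FACS into six bins by GFP to DsRed ratio, PSI derived from sequencing read proportions per bin multiplied by bin number.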

| Variant | protein stability index |
| --- | --- |
| S3Q | 2.38 |
| S3M | 2.01 |
| S3E | 2.95 |
| S3K | 2.68 |
| S3N | 2.2 |
| S3D | 3.55 |
| S3A | 3.23 |
| S3L | 3.01 |
| S3P | 3.01 |
| K11V | 1.67 |
| K11M | 2.63 |
| K11T | 3.14 |
| K11C | 3.3 |
| K11R | 1.86 |
| K11H | 1.88 |
| K11N | 2.41 |
| K11I | 2.21 |
| K11E | 1.92 |
| E17P | 2.4 |
| E17H | 1.6 |
| E17A | 1.8 |
| E17I | 1.93 |
| E17G | 2.66 |
| E17W | 2.35 |

| Variant | protein stability index |
| --- | --- |
| Q21I | 2.66 |
| Q21T | 3.59 |
| Q21V | 1.96 |
| Q21Y | 2.43 |
| Q21R | 1.53 |
| Q21H | 2.05 |
| Q21W | 1.84 |
| R12N | 3.13 |
| R12T | 2.65 |
| R12F | 2.61 |
| R12C | 2 |
| R12Q | 2.87 |
| R12P | 2.07 |
| R12W | 1.18 |
| W10G | 3.27 |
| W10P | 3.41 |
| W10T | 2.92 |
| W10H | 2.9 |
| W10A | 3.39 |
| W10R | 3.49 |
| N15S | 1.88 |
| N15R | 2.24 |
| N15L | 1.92 |
| N15I | 2.53 |

| Variant | protein stability index |
| --- | --- |
| N15Q | 2.01 |
| N15Y | 1.28 |
| N15C | 2.31 |
| N15E | 3.18 |
| L2A | 2.8 |
| L2N | 3.33 |
| L2P | 2.6 |
| L2F | 2.51 |
| L2K | 2.74 |
| L2C | 2.32 |
| L2Q | 3.35 |
| L2T | 2.72 |
| L2H | 3.1 |
| D14H | 2.19 |
| D14V | 2.9 |
| D14L | 1.94 |
| D14I | 2.6 |
| D14K | 2.67 |
| D14R | 2.74 |
| D14A | 2.1 |
| D14C | 2.08 |
| D14S | 1.94 |
| A23C | 3.53 |
| A23D | 4.15 |

| Variant | protein stability index |
| --- | --- |
| A23W | 2.94 |
| A23I | 3.76 |
| A23L | 3.89 |
| A23P | 4.07 |
| A23K | 4.54 |
| A23N | 4.51 |
| T1F | 2.16 |
| T1G | 3.34 |
| T1Y | 1.78 |
| T1M | 2.66 |
| T1R | 2.79 |
| T1E | 2.59 |
| T1I | 2.31 |
| A5C | 3.14 |
| A5K | 2.2 |
| A5L | 2.29 |
| A5N | 2.6 |
| A5E | 2.75 |
| A5G | 2.86 |
| D16Y | 2.9 |
| D16L | 2.61 |
| D16N | 2.67 |
| D16W | 3.13 |
| D16F | 1.51 |

| Variant | protein stability index |
| --- | --- |
| Q8R | 3.93 |
| Q8Y | 2.07 |
| Q8F | 2 |
| Q8E | 3 |
| Q8C | 1.95 |
| I7F | 2.27 |
| I7G | 2.56 |
| I7V | 2.72 |
| I7W | 3.49 |
| I7L | 2.44 |
| I7C | 2.41 |
| I7D | 3.29 |
| I7Q | 3.2 |
| I7S | 3.32 |
| I7H | 3.07 |
| I9S | 2.8 |
| I9C | 2.12 |
| I9T | 2.7 |
| I9E | 3.11 |
| Q20D | 2.37 |
| Q20K | 2.14 |
| Q20R | 2.35 |
| Q20L | 2.02 |
| Q20I | 1.74 |

| Variant | protein stability index |
| --- | --- |
| Q20Y | 2.4 |
| Q20S | 4.26 |
| Q20F | 2.02 |
| Q20W | 2.17 |
| Y6A | 3.45 |
| Y6V | 3.28 |
| Y6L | 2.2 |
| Y6P | 2.61 |
| Y6D | 3.66 |
| Y6R | 3.02 |
| Y6N | 1.9 |
| Y6T | 3.32 |
| N19R | 2.37 |
| N19F | 2.99 |
| N19S | 2.9 |
| N19Y | 3.5 |
| R13D | 3.22 |
| R13G | 1.93 |
| R13H | 2.43 |
| R13L | 1.84 |
| R13V | 1.97 |
| R13E | 2.63 |
| E4Y | 2.04 |
| E4W | 1.73 |

| Variant | protein stability index |
| --- | --- |
| E4K | 2.4 |
| E4A | 2.46 |
| E4N | 2.05 |
| E4G | 2.23 |
| E4M | 2.09 |
| E4I | 1.96 |
| E4P | 3.17 |
| G22A | 3.77 |
| G22H | 3.63 |
| G22S | 3.82 |
| G22I | 3.35 |
| G22T | 3.66 |
| G22Y | 3.04 |
| G22L | 3.26 |
| T18K | 3.63 |
| T18A | 3.05 |
| T18I | 3.17 |
| T18C | 1.69 |
| T18F | 1.73 |
| T18D | 1.95 |
| T18W | 2.11 |
| T18Q | 1.61 |
| T18V | 2.56 |
